The source of these data is US10577424 (BEIJING MABWORKS BIOTECH, dated 2020).

In test [1] the target is T1, mouse VISTA expressed on HEK293A cells (mouse, UniProt Q9D659 33-308).
T1 construct: also called HEK293A/mouseVISTA; HEK293A/mouse VISTA
T1 sequence: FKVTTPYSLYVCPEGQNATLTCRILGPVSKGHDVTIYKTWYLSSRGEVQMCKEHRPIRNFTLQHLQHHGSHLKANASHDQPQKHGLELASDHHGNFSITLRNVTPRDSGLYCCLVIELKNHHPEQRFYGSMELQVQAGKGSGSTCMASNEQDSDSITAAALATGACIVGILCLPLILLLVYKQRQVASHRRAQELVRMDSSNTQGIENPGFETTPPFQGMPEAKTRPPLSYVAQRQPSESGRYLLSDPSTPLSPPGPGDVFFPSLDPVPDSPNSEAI
Nature of the test: FACS on HEK293A/mouse VISTA cells. The method, then:
(§1) Example 5 Mouse Anti-VISTA Monoclonal Antibodies Bound to Human and Monkey VISTA Expressed on HEK293A Cells To further determine whether anti-VISTA antibodies bound to human, monkey or mouse VISTA expressed on HEK293A cells, a cell-based binding assay by FACS was performed using the HEK293A cells stably overexpressing human, monkey or mouse VISTA as generated in Example 1, respectively. Briefly, 10^5 HEK293A cells were seeded into each well of the 96-well plates and serially diluted anti-VISTA antibodies were added to the plates. After incubated at 4° C. for 1 hour, plates were washed 3 times with PBST. Then, an APC coupled Goat Anti-Mouse IgG (BioLegend, US, Cat #:405308) diluted 500× was added to the plates. After incubation at 4° C. for 1 hour, the plates were washed with PBS for 3 times and then cell fluorescence was monitored using a FACS machine (BD).

The target in test [2] is T2, monkey VISTA (ECD)-his (Sino Biological, Cat #: 90801-K08H) (cynomolgus monkey).
T2 construct: extracellular domain; Bought protein; also called cynoVISTA(ECD)-his; cynomolgus VISTA (ECD)-his
Description: direct ELISA, coated cynoVISTA(ECD)-his. The protocol:
(§2) Species-cross-reactivity of the 28 VISTA mAbs to monkey or mouse VISTA was further assessed by direct ELISA. Briefly, 500 ng/ml monkey VISTA (ECD)-his (Sino Biological, CN, Cat #: 90801-K08H) or mouse VISTA-his (Sino Biological, CN, Cat #:511550-M08H) was coated on 96-well ELISA plates followed by incubation with 100 μl of serially diluted anti-VISTA antibodies (starting from 40000 ng/ml). Goat anti-mouse IgG conjugated with HRP (Sigma, US, Cat #:A9309-1 ml) was used then. Anti-VISTA antibody JNJ-VSTB174 (referred to as JNJ) (prepared using the amino acid sequences disclosed in WO 2015/097536 A2 with human IgG1/kappa constant regions) was used as the reference.
(In general: ELISA stands for enzyme-linked immunosorbent assay.)

The target of test [3] is T3, mouse VISTA-his (Sino Biological, Cat #:511550-M08H) (mouse, UniProt Q9D659 33-191).
T3 construct: extracellular domain; Bought protein; also called muVISTA-his; mouse VISTA (ECD)-his; not shown: his tag
T3 sequence (looked up): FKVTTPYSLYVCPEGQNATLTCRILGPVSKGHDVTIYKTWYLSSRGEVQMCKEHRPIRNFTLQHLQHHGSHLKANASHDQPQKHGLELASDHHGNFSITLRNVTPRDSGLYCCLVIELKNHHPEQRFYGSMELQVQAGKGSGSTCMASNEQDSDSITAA
Description: direct ELISA, coated mouse VISTA-his. The method, then: as §2

Test [4] addresses T4, human VISTA expressed on HEK293A cells (human, UniProt Q9H7M9 33-311).
T4 construct: also called HEK293A/humanVISTA; HEK293A/human VISTA
T4 sequence: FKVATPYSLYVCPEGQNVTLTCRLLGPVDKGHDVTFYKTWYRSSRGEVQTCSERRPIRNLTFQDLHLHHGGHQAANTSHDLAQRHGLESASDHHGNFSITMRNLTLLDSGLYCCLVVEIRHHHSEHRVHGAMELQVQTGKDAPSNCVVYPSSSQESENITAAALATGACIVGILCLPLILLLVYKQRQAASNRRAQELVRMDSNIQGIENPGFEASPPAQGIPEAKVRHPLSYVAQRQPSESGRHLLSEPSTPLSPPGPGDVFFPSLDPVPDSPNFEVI
Nature of the test: FACS on HEK-293A/hVISTA cells. The method, then: as §1

The target in test [5] is T5, human VISTA (ECD)-his (Sino Biological, Cat #:13482-H08H) (human, UniProt Q9H7M9 33-194).
T5 construct: extracellular domain; Bought protein; also called hVISTA(ECD)-his; recombinant human VISTA(ECD)-his; not shown: his tag
T5 sequence (looked up): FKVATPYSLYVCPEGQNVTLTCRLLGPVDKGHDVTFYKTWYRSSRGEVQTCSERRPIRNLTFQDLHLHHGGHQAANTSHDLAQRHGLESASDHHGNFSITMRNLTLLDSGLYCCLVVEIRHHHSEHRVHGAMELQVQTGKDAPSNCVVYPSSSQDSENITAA
Nature of the test: direct ELISA, coated hVISTA(ECD)-his. The method, then: ELISA plates were coated with 500 ng/ml human VISTA (ECD)-his (Sino Biological, CN, Cat #:13482-H08H) at 4° C. overnight. The wells were blocked with 200 μl of blocking buffer (PBS containing 1% BSA, 1% goat serum, and 0.05% Tween 20) for 2 hours at room temperature, and then 100 μl of serially diluted anti-VISTA antibodies (starting from 40000 ng/ml) were added to each well and incubated for 1 hour at RT. Plates were washed for 3 times with PBST (PBS+0.05% Tween 20), added with Goat-anti-mouse IgG-HRP (Simga, US, Cat #:A9309-1 ml) diluted 5000×, and incubated for 1 hour at RT. Plates were developed with freshly prepared Ultra-TMB (BD, US, Cat #:555214) for 5 minutes at RT. Absorbance was read on a SpectraMax® i3× (Molecular Devies, US) at 450 nm.

In test [6] the target is T4, human VISTA expressed on HEK293A cells. Nature of the test: FACS blocking assay on HEK293A/human VISTA cells; competitor 200 µg/ml VSIG3-hFc. The method, then:
A cell-based blocking assay by FACS was performed using the HEK293A cells stably overexpressing human VISTA as generated in Example 1. Briefly, 10^5 HEK293A/human VISTA cells were seeded into each well of the 96-well plates and serially diluted anti-VISTA antibodies were added to the plates. After incubated at 4° C. for 1 hour, plates were washed 3 times with PBST. Then 200 μg/ml VSIG3-hFc fusion proteins were added into the plate. After incubation at 4° C. for 1 hour, the plates were washed with PBS for 3 times and then an PE coupled Goat Anti-human IgG (Thermofisher, USA, Cat # PAI-86078) diluted 500× was added to the plates. After incubation at 4° C. for 1 hour, the plates were washed with PBS for 3 times and then cell fluorescence was monitored using a FACS machine (BD).

Test [7] addresses T6, monkey VISTA expressed on HEK293A cells (monkey (cynomolgus)).
T6 construct: also called HEK293A/cynoVISTA; HEK293A/monkey VISTA
T6 chain: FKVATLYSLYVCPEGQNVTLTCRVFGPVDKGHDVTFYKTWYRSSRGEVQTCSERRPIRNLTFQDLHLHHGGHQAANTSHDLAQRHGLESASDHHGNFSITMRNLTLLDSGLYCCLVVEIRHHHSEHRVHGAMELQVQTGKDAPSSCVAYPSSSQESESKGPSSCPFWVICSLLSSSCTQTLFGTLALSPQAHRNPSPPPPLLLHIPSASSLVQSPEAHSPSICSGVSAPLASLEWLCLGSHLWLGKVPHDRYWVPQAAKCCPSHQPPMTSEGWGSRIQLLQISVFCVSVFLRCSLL
Nature of the test: FACS on HEK-293A/cynoVISTA cells. The method, then: as §1

B1: mouse 161E5 anti-VISTA antibody (antibody, V domains shown)
VH: QVQLKQSGAELVRPGASVKLSCKASGYSFTDYYINWVKQRPGQGLEWIARIFPGSGNAYYNEKFKDKATLTVEKSSSAAYMQLSSLTSEDSAVYFCARDDSFYGYWYFDVWGTGTTVTVSS
VL: NIMMTQSPSSLAVSAGEKVTMSCKSSQSVLYSSNQKNYLAWYQQKPGQSPKLLIYWASTRESGVPDRFTGSGSGTDFTLTISSVQAEDLAVYYCHQYLSSYTFGGGTKLEIK
notes: also called mouse anti-VISTA antibodies from clone 161E5; murine antibody 161E5
In the case of B1, the binding result in test [1] is listed as “no binding”; in test [3], “no binding (tested: starting from 40000 ng/ml)”. Besides, the EC50 (usually the concentration giving half of the maximal effect) in test [2] is 0.45 nM; in test [4] it was 0.6 nM; in test [5], 0.32 nM; in test [6], 19 nM; in test [7] it was 1.2 nM.
